B1: samalizumab (antibody, human IgG2, kappa, V domains shown)
VH: QVQLQQSGSELKKPGASVKISCKASGYSFTDYIILWVRQNPGKGLEWIGHIDPYYGSSNYNLKFKGRVTITADQSTTTAYMELSSLRSEDTAVYYCGRSKRDYFDYWGQGTTLTVSS
VL: DIQMTQSPSSLSASIGDRVTITCKASQDINSYLSWFQQKPGKAPKLLIYRANRLVDGVPSRFSGSGSGTDYTLTISSLQPEDFAVYYCLQYDEFPYTFGGGTKLEIKR
notes: Humanized anti-human CD200 mAb with G2/G4 constant region; also called ALXN6000; TPP-309
B2: TPP-1143 (antibody, human IgG2, kappa, V domains shown)
VH: QVQLVQSGAEVKKPGASVKVSCKASGYSFTDYIILWVRQAPGQRLEWMGHIDPYYGSSNYNLKFKGRVTITRDTSASTAYMELSSLRSEDTAVYYCGRSKRDYFDYWGQGTLVTVSS
VL: B1 VL with I15V, L46S, Y71F, A84G, V85T, G100Q
notes: mAb with human G2G4 Fc (effectorless); also called TPP-11143 (as printed once)
B3: TPP-101 (Fab, V domains shown)
VH: B1 VH
VL: DIQMTQSPSSLSASIGDRVTITCKASQDINSYLSWFQQKPGKAPKLLIYRANRLVDGVPSRFSGSGSGTDYTLTISSLQPEDFAVYYCLQYDEFPYTFGGGTKLEIK
B4: TPP-741 (Fab, V domains shown)
VH: B2 VH with M48I, G97A
VL: B3 VL with I15V, L46S, Y71F, V85T, G100Q
B5: TPP-709 (Fab, V domains shown)
VH: B2 VH
VL: B3 VL with I15V, L46S, Y71F, A84G, V85T, G100Q
B6: TPP-751 (Fab, V domains shown)
VH: B2 VH
VL: B3 VL with I15V, L46S, Y71F, V85T, G100Q
B7: TPP-100 (Fab, V domains shown)
VH: EVQLQQSGPELVKPGASLKMSCKASGYSFTDYIILWVKQNHGKSLEWIGHIDPYYGSSNYNLKFKGKATLTVDKSSSTAYMQLNSLTSEDSAVYYCGRSKRDYFDYWGQGTTLTVSS
VL: DIQMTQSPSSMYASLGERVTITCKASQDINSYLSWFQQKPGKSPKTLIYRANRLVDGVPSRFSGSGSGQDYSLTISSLEYEDMGIYYCLQYDEFPYTFGGGTKLEIK
B8: TPP-115 (Fab, V domains shown)
VH: B2 VH with R44G, I70M, A76I, S85R, E89D, G97A
VL: B3 VL with I15V, L46S, Y71F, V85T, G100Q
B9: TPP-135 (Fab, V domains shown)
VH: B2 VH with V2M, A9P, A16T, P41R, M48I, T74M, A76T, G97A, R98A
VL: B3 VL with I15V, L46S, Y71F, V85T, G100Q
B10: TPP-107 (Fab, V domains shown)
VH: B2 VH with A16S, R44G, R72A, T74E, A76T, G97A
VL: B3 VL with I15V, L46S, Y71F, V85T, G100Q
B11: TPP-131 (Fab, V domains shown)
VH: B2 VH with V2M, P14T, A16S, R44A, T74R, A76M, V93M, G97A
VL: B3 VL with I15V, L46S, Y71F, V85T, G100Q
B12: TPP-123 (Fab, V domains shown)
VH: B2 VH with P41T, R44G, I70M, D73N, A76I, G97A
VL: B3 VL with I15V, L46S, Y71F, V85T, G100Q
B13: TPP-111 (Fab, V domains shown)
VH: B2 VH with R44G, I70M, R72T, A76T, S84R, E89D, G97A
VL: B3 VL with I15V, L46S, Y71F, V85T, G100Q
B14: TPP-103 (Fab, V domains shown)
VH: B2 VH with R44G, I70M, A76T, A79V, G97A
VL: B3 VL with I15V, L46S, Y71F, V85T, G100Q
B15: TPP-139 (Fab, V domains shown)
VH: QVQLVQSGSELKKPGASVKVSCKASGYSFTDYIILWVRQAPGQGLEWMGHIDPYYGSSNYNLKFKGRFVFSLDTSVSTAYLQISSLKAEDTAVYYCARSKRDYFDYWGQGTLVTVSS
VL: B3 VL with I15V, L46S, Y71F, V85T, G100Q

Where a chain is given by its changes, count along the chain named.

The target of one assay is T1, cell surface CD200 (human, UniProt P41217 31-278).
T1 construct: whole, on cells; also called CD200 on CD200 expressing Raji cells; CD200+ Raji cells
T1 sequence (looked up): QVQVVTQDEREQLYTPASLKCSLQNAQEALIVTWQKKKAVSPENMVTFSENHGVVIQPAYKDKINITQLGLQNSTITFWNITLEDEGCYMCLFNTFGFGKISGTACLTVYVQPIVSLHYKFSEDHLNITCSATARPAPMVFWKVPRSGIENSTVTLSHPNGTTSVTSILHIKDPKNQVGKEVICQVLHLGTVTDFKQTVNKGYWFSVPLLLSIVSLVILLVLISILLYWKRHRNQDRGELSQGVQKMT
The experiment in a line: flow cytometry, inhibition of labelled CD200R-Fc binding to CD200+ Raji cells; mean ± SD. An excerpt: (§1) Next, the abilities of the newly-engineered anti-CD200 antibodies to antagonize CD200R were compared with that of samalizumab using CD200+ Raji cells. […] Binding of labeled CD200R-Fc was detected by flow cytometry.
The molecule B1 came in with an EC50 of 0.46 nM.

In another assay the target is T1, cell surface CD200. The experiment in a line: whole-blood CD200 receptor occupancy by flow cytometry, T cells (CD3+); unlabelled antibody incubated overnight, free CD200 against total CD200 (1B2-AF647). Here is the method:
(§2) Whole blood (including sodium heparin as anticoagulant) was added at 250 μL/FACs tube and sealed. Tubes were incubated at 25° C. in a temperature-controlled cabinet overnight to allow therapeutic antibody binding.
(§3) FACS Antibody Staining: Cells were blocked with Fc blocking reagent for 30 min. Red blood cells were lysed with hemolytic buffer; remaining cells were spun 800×g for 5 minutes, and the resulting cell pellet was washed twice with PBS. After final wash, cell pellets were resuspended into 200 μL PBS. Cells were stained with a fixable Live/Dead dye for 20 minutes protected from light, and then neutralized and washed with FACS buffer. After the final wash the cells were resuspended in 100 μL wash with FcR block. Labeled antibody cocktail mixes were prepared CD3-PE/CD19-FITC/Alexa-647 or CD3-PE/CD19-FITC/1B2-647 in blocking buffer as well as appropriate controls (single color and FMO). The appropriate amount of antibody was added and incubated with cells protected from light for 30 minutes at room temperature. […]
(§4) FACS Analysis: Data was acquired on an automated cell analyzer (BD Fortessa) by gating on lymphocytes, and single live cells followed by B cell (CD19+-FITC) and T cells (CD3-PE) populations. […] Percent receptor occupancy was calculated from the MFI (median fluorescence intensity) according to the following formula: […]
For the molecule B2, the “EC50 (read off the curve)” value was ~4 ng/mL.

Another assay concerns the target T1, cell surface CD200. The experiment in a line: whole-blood CD200 receptor occupancy by flow cytometry, B cells (CD19+); unlabelled antibody incubated overnight, free CD200 against total CD200 (1B2-AF647). As to the method: as §2, §3, §4
As to B2, the half-maximal effective concentration (EC50 (read off the curve)) is ~4 ng/mL.

In a further assay the target is T1, cell surface CD200. The experiment in a line: flow cytometry, inhibition of labelled CD200R-Fc binding to CD200+ Raji cells; n = 1.
Excerpt: as §1
B2 returned an EC50 of 0.186 nM.

Another assay addresses recombinant human CD200 Fc Chimera (human) (UniProt P41217). The experiment in a line: SPR (Biacore), CD200 captured by anti-Fc (human) on CM5, Fab injected.
Take B3: the Kd was determined as 6.01 nM, the koff was found to be 0.0175 s⁻¹ and the on-rate (kon) is 2.91e+06 M⁻¹ s⁻¹.

In the case of B4, the Kd came out at 0.407 nM, the koff worked out at 0.000707 s⁻¹ and the kon is 1.74e+06 M⁻¹ s⁻¹.

On to B5, for which the Kd turned out to be 0.132 nM, the fold better affinity than mouse parental c2aB7 (TPP-100 Fab) is 3 fold, the fold better affinity than samalizumab (TPP-101 Fab) worked out at 45 fold and the koff turned out to be 0.00024 s⁻¹. Besides, the kon amounted to 1.82e+06 M⁻¹ s⁻¹.

On to B6, for which the Kd came out at 0.104 nM, the fold better affinity than mouse parental c2aB7 (TPP-100 Fab) came to 3 fold, the fold better affinity than samalizumab (TPP-101 Fab) was found to be 45 fold and the dissociation rate constant (koff) was determined as 0.00022 s⁻¹. Also, the kon is 2.11e+06 M⁻¹ s⁻¹.

On to B7, for which the Kd came out at 0.442 nM, the koff worked out at 0.000747 s⁻¹ and the kon is 1.69e+06 M⁻¹ s⁻¹.

A further assay shares this target. The experiment in a line: SPR (Biacore 3000), CD200-Fc captured by anti-human Fc on CM5, Fab injected, 1:1 Langmuir.
B3: the Kd came to 5.53 nM, the koff turned out to be 0.0148 s⁻¹ and the on-rate (kon) was determined as 2.67e+06 M⁻¹ s⁻¹.

Consider B8, for which the Kd came to 4.04 nM, the koff is 0.0053 s⁻¹ and the kon came out at 1.31e+06 M⁻¹ s⁻¹.

As to B9, the Kd was determined as 15.7 nM, the koff amounted to 0.0146 s⁻¹ and the kon is 930000 M⁻¹ s⁻¹.

Take B10: the Kd turned out to be 4.64 nM, the koff turned out to be 0.0041 s⁻¹ and the kon stood at 885000 M⁻¹ s⁻¹.

For the molecule B11, the Kd came out at 0.887 nM, the koff stood at 0.00235 s⁻¹ and the kon is 2.65e+06 M⁻¹ s⁻¹.

On to B12, for which the Kd worked out at 4.36 nM, the off-rate constant (koff) came to 0.00487 s⁻¹ and the kon was 1.12e+06 M⁻¹ s⁻¹.

Turning to B13, the Kd worked out at 5.08 nM, the koff is 0.00625 s⁻¹ and the association rate constant (kon) stood at 1.23e+06 M⁻¹ s⁻¹.

In the case of B14, the dissociation constant (Kd) came to 10.1 nM, the koff was 0.00704 s⁻¹ and the kon is 694000 M⁻¹ s⁻¹.

In the case of B15, the Kd was determined as 3.71 nM, the koff was 0.00368 s⁻¹ and the kon amounted to 993000 M⁻¹ s⁻¹.

Take B7: the dissociation constant Kd came to 0.488 nM, the koff turned out to be 0.000739 s⁻¹ and the kon was 1.51e+06 M⁻¹ s⁻¹.
